Laboratory results reported in article PMC11574045, “A cofactor-induced repressive type of transcription factor condensation can be induced by synthetic peptides to suppress tumorigenesis” (The EMBO Journal, 2024).

B1: ZEB2 (protein, UniProt O60315 1-1214, looked up)
Zinc finger E-box-binding …: MKQPIMADGPRCKRRKQANPRRKNVVNYDNVVDTGSETDEEDKLHIAEDDGIANPLDQETSPASVPNHESSPHVSQALLPREEEEDEIREGGVEHPWHNNEILQASVDGPEEMKEDYDTMGPEATIQTAINNGTVKNANCTSDFEEYFAKRKLEERDGHAVSIEEYLQRSDTAIIYPEAPEELSRLGTPEANGQEENDLPPGTPDAFAQLLTCPYCDRGYKRLTSLKEHIKYRHEKNEENFSCPLCSYTFAYRTQLERHMVTHKPGTDQHQMLTQGAGNRKFKCTECGKAFKYKHHLKEHLRIHSGEKPYECPNCKKRFSHSGSYSSHISSKKCIGLISVNGRMRNNIKTGSSPNSVSSSPTNSAITQLRNKLENGKPLSMSEQTGLLKIKTEPLDFNDYKVLMATHGFSGTSPFMNGGLGATSPLGVHPSAQSPMQHLGVGMEAPLLGFPTMNSNLSEVQKVLQIVDNTVSRQKMDCKAEEISKLKGYHMKDPCSQPEEQGVTSPNIPPVGLPVVSHNGATKSIIDYTLEKVNEAKACLQSLTTDSRRQISNIKKEKLRTLIDLVTDDKMIENHNISTPFSCQFCKESFPGPIPLHQHERYLCKMNEEIKAVLQPHENIVPNKAGVFVDNKALLLSSVLSEKGMTSPINPYKDHMSVLKAYYAMNMEPNSDELLKISIAVGLPQEFVKEWFEQRKVYQYSNSRSPSLERSSKPLAPNSNPPTKDSLLPRSPVKPMDSITSPSIAELHNSVTNCDPPLRLTKPSHFTNIKPVEKLDHSRSNTPSPLNLSSTSSKNSHSSSYTPNSFSSEELQAEPLDLSLPKQMKEPKSIIATKNKTKASSISLDHNSVSSSSENSDEPLNLTFIKKEFSNSNNLDNKSTNPVFSMNPFSAKPLYTALPPQSAFPPATFMPPVQTSIPGLRPYPGLDQMSFLPHMAYTYPTGAATFADMQQRRKYQRKQGFQGELLDGAQDYMSGLDDMTDSDSCLSRKKIKKTESGMYACDLCDKTFQKSSSLLRHKYEHTGKRPHQCQICKKAFKHKHHLIEHSRLHSGEKPYQCDKCGKRFSHSGSYSQHMNHRYSYCKREAEEREAAEREAREKGHLEPTELLMNRAYLQSITPQGYSDSEERESMPRDGESEKEHEKEGEDGYGKLGRQDGDEEFEEEEEESENKSMDTDPETIRDEEETGDHSMDDSSEDGKMETKSDHEEDNMEDGM
B2: ZFAT (protein, UniProt Q9P243 1-1243, looked up)
Zinc finger protein ZFAT: METRAAENTAIFMCKCCNLFSPNQSELLSHVSEKHMEEGVNVDEIIIPLRPLSTPEPPNSSKTGDEFLVMKRKRGRPKGSTKKSSTEEELAENIVSPTEDSPLAPEEGNSLPPSSLECSKCCRKFSNTRQLRKHICIIVLNLGEEEGEAGNESDLELEKKCKEDDREKASKRPRSQKTEKVQKISGKEARQLSGAKKPIISVVLTAHEAIPGATKIVPVEAGPPETGATNSETTSADLVPRRGYQEYAIQQTPYEQPMKSSRLGPTQLKIFTCEYCNKVFKFKHSLQAHLRIHTNEKPYKCPQCSYASAIKANLNVHLRKHTGEKFACDYCSFTCLSKGHLKVHIERVHKKIKQHCRFCKKKYSDVKNLIKHIRDAHDPQDKKVKEALDELCLMTREGKRQLLYDCHICERKFKNELDRDRHMLVHGDKWPFACELCGHGATKYQALELHVRKHPFVYVCAVCRKKFVSSIRLRTHIKEVHGAAQEALVFTSSINQSFCLLEPGGDIQQEALGDQLQLVEEEFALQGVNALKEEACPGDTQLEEGRKEPEAPGEMPAPAVHLASPQAESTALPPCELETTVVSSSDLHSQEVVSDDFLLKNDTSSAEAHAAPEKPPDMQHRSSVQTQGEVITLLLSKAQSAGSDQESHGAQSPLGEGQNMAVLSAGDPDPSRCLRSNPAEASDLLPPVAGGGDTITHQPDSCKAAPEHRSGITAFMKVLNSLQKKQMNTSLCERIRKVYGDLECEYCGKLFWYQVHFDMHVRTHTREHLYYCSQCHYSSITKNCLKRHVIQKHSNILLKCPTDGCDYSTPDKYKLQAHLKVHTALDKRSYSCPVCEKSFSEDRLIKSHIKTNHPEVSMSTISEVLGRRVQLKGLIGKRAMKCPYCDFYFMKNGSDLQRHIWAHEGVKPFKCSLCEYATRSKSNLKAHMNRHSTEKTHLCDMCGKKFKSKGTLKSHKLLHTADGKQFKCTVCDYTAAQKPQLLRHMEQHVSFKPFRCAHCHYSCNISGSLKRHYNRKHPNEEYANVGTGELAAEVLIQQGGLKCPVCSFVYGTKWEFNRHLKNKHGLKVVEIDGDPKWETATEAPEEPSTQYLHITEAEEDVQGTQAAVAALQDLRYTSESGDRLDPTAVNILQQIIELGAETHDATALASVVAMAPGTVTVVKQVTEEEPSSNHTVMIQETVQQASVELAEQHHLVVSSDDVEGIETVTVYTQGGEASEFIVYVQEAMQPVEEQAVEQPAQEL
B3: ZFP144 (protein, UniProt P35227 1-344, looked up)
Polycomb group RING finger …: MHRTTRIKITELNPHLMCALCGGYFIDATTIVECLHSFCKTCIVRYLETNKYCPMCDVQVHKTRPLLSIRSDKTLQDIVYKLVPGLFKDEMKRRRDFYAAYPLTEVPNGSNEDRGEVLEQEKGALSDDEIVSLSIEFYEGARDRDEKKGPLENGDGDKEKTGVRFLRCPAAMTVMHLAKFLRNKMDVPSKYKVEVLYEDEPLKEYYTLMDIAYIYPWRRNGPLPLKYRVQPACKRLTLATVPTPSEGTNTSGASECESVSDKAPSPATLPATSSSLPSPATPSHGSPSSHGPPATHPTSPTPPSTASGATTAANGGSLNCLQTPSSTSRGRKMTVNGAPVPPLT
B4: CALCOCO1 (protein, UniProt Q9P1Z2 1-691, looked up)
Calcium-binding and …: MEESPLSRAPSRGGVNFLNVARTYIPNTKVECHYTLPPGTMPSASDWIGIFKVEAACVRDYHTFVWSSVPESTTDGSPIHTSVQFQASYLPKPGAQLYQFRYVNRQGQVCGQSPPFQFREPRPMDELVTLEEADGGSDILLVVPKATVLQNQLDESQQERNDLMQLKLQLEGQVTELRSRVQELERALATARQEHTELMEQYKGISRSHGEITEERDILSRQQGDHVARILELEDDIQTISEKVLTKEVELDRLRDTVKALTREQEKLLGQLKEVQADKEQSEAELQVAQQENHHLNLDLKEAKSWQEEQSAQAQRLKDKVAQMKDTLGQAQQRVAELEPLKEQLRGAQELAASSQQKATLLGEELASAAAARDRTIAELHRSRLEVAEVNGRLAELGLHLKEEKCQWSKERAGLLQSVEAEKDKILKLSAEILRLEKAVQEERTQNQVFKTELAREKDSSLVQLSESKRELTELRSALRVLQKEKEQLQEEKQELLEYMRKLEARLEKVADEKWNEDATTEDEEAAVGLSCPAALTDSEDESPEDMRLPPYGLCERGDPGSSPAGPREASPLVVISQPAPISPHLSGPAEDSSSDSEAEDEKSVLMAAVQSGGEEANLLLPELGSAFYDMASGFTVGTLSETSTGGPATPTWKECPICKERFPAESDKDALEDHMDGHFFFSTQDPFTFE
B5: ZFP296 (protein, UniProt Q8WUU4 1-475, looked up)
Zinc finger protein 296: MSRRKAGSAPRRVEPAPAANPDDEMEMQDLVIELKPEPDAQPQQAPRLGPFSPKEVSSAGRFGGEPHHSPGPMPAGAALLALGPRNPWTLWTPLTPNYPDRQPWTDKHPDLLTCGRCLQTFPLEAITAFMDHKKLGCQLFRGPSRGQGSEREELKALSCLRCGKQFTVAWKLLRHAQWDHGLSIYQTESEAPEAPLLGLAEVAAAVSAVVGPAAEAKSPRASGSGLTRRSPTCPVCKKTLSSFSNLKVHMRSHTGERPYACDQCPYACAQSSKLNRHKKTHRQVPPQSPLMADTSQEQASAAPPEPAVHAAAPTSTLPCSGGEGAGAAATAGVQEPGAPGSGAQAGPGGDTWGAITTEQRTDPANSQKASPKKMPKSGGKSRGPGGSCEFCGKHFTNSSNLTVHRRSHTGERPYTCEFCNYACAQSSKLNRHRRMHGMTPGSTRFECPHCHVPFGLRATLDKHLRQKHPEAAGEA
B6: ZFP36L1 (protein, UniProt P23950 1-338, looked up)
mRNA decay activator protein …: MTTTLVSATIFDLSEVLCKGNKMLNYSTPSAGGCLLDRKAVGTPAGGGFPRRHSVTLPSSKFHQNQLLSSLKGEPAPSLSSRDSRFRDRSFSEGGERLLPTQKQPGSGQVNSSRYKTELCRPFEENGACKYGDKCQFAHGIHELRSLTRHPKYKTELCRTFHTIGFCPYGPRCHFIHNAEERRALAGGRDLSADRPRLQHSFSFAGFPSAAATAAATGLLDSPTSITPPPILSADDLLGSPTLPDGTNNPFAFSSQELASLFAPSMGLPGGGSPTTFLFRPMSESPHMFDSPPSPQDSLSDHEGYLSSSSSSHSGSDSPTLDNSRRLPIFSRLSISDD
B7: CALR (protein, UniProt P27797 18-417, looked up)
Calreticulin: EPAVYFKEQFLDGDGWTSRWIESKHKSDFGKFVLSSGKFYGDEEKDKGLQTSQDARFYALSASFEPFSNKGQTLVVQFTVKHEQNIDCGGGYVKLFPNSLDQTDMHGDSEYNIMFGPDICGPGTKKVHVIFNYKGKNVLINKDIRCKDDEFTHLYTLIVRPDNTYEVKIDNSQVESGSLEDDWDFLPPKKIKDPDASKPEDWDERAKIDDPTDSKPEDWDKPEHIPDPDAKKPEDWDEEMDGEWEPPVIQNPEYKGEWKPRQIDNPDYKGTWIHPEIDNPEYSPDPSIYAYDNFGVLGLDLWQVKSGTIFDNFLITNDEAYAEEFGNETWGVTKAAEKQMKDKQDEEQRLKEEEEDKKRKEEEEAEDKEDDEDKDEDEEDEEDKEEDEEEDVPGQAKDEL
B8: ZFP67 (protein, UniProt O15156 1-539, looked up)
Zinc finger and BTB …: MGSPEDDLIGIPFPDHSSELLSCLNEQRQLGHLCDLTIRTQGLEYRTHRAVLAACSHYFKKLFTEGGGGAVMGAGGSGTATGGAGAGVCELDFVGPEALGALLEFAYTATLTTSSANMPAVLQAARLLEIPCVIAACMEILQGSGLEAPSPDEDDCERARQYLEAFATATASGVPNGEDSPPQVPLPPPPPPPPRPVARRSRKPRKAFLQTKGARANHLVPEVPTVPAHPLTYEEEEVAGRVGSSGGSGPGDSYSPPTGTASPPEGPQSYEPYEGEEEEEELVYPPAYGLAQGGGPPLSPEELGSDEDAIDPDLMAYLSSLHQDNLAPGLDSQDKLVRKRRSQMPQECPVCHKIIHGAGKLPRHMRTHTGEKPFACEVCGVRFTRNDKLKIHMRKHTGERPYSCPHCPARFLHSYDLKNHMHLHTGDRPYECHLCHKAFAKEDHLQRHLKGQNCLEVRTRRRRKDDAPPHYPPPSTAAASPAGLDLSNGHLDTFRLSLARFWEQSAPTGPPVSTPGPPDDDEEEGAPTTPQAEGAMESS

What follows are molecules tested on HEK293FT cells transfected with TF library (assay: Screening of TF condensates based on fluorescent puncta). Conditions: Figure 1B numerical data; TF library screen, one value per transcriptional factor.
Type: cell-based
How it was run: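 HEK293FT, PEI transfection of TF library, 60 h; ±glucose 12 h; 4% PFA fix, 0.05% Triton X-100 permeabilization, 5% BSA block; anti-Flag/anti-GAL4 overnight at 4 °C, Alexa 488 secondary 1 h; high-content imaging, 50 fields/well.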
B1 was tested, and the “Z score of condensed fraction” value was -0.2398.
With B2 the “Z score of condensed fraction” value was -0.7456.
For B3, the “Z score of condensed fraction” value was 0.0768.
B4 was tested, and the “Z score of condensed fraction” value was 0.2225.
For B5, the “Z score of condensed fraction” value was 0.8818.
B6 was tested, and the “Z score of condensed fraction” value was 0.2477.
B7 was tested, and the “Z score of condensed fraction” value was 1.22.
With B8 the “Z score of condensed fraction” value was 0.1735.
